Data: patent US7893216B2 (The Institute of Basic Medical Sciences of Chinese Academy …, priority 2004, dated 2011)

Experiments:
[1] = test system: human primary normal lymphocytes; experiment: Effect on normal human primary lymphocytes in vitro (MTS); type: cell-based
Protocol: (§1) After treatment, MTS reagent (Promega, USA) was then added and reacted for 2-4 hours and the absorbance values (OD value) of each well were read by using an automatic multi-well spectrophotometer, Wellscan MK3 (Thermo Labsystems, Finland) at the wavelength of 492 nm. OD value of no cell wells is considered as “0,” and the survival rate of the cells is equal to ratio of OD value of treated wells to OD value of control wells.

[2] = test system: leukemia, liver and lung cancer cells; experiment: Tumoricidal activity in vitro (MTS cell viability); type: cell-based, human
Protocol: as §1

[3] = test system: tumor cells such as liver and lung cancer; experiment: Synergy of tumoricidal activity with TRAIL; type: cell-based; conditions: combined with TRAIL
[4] = test system: human leukemia, liver and lung cancer cells; experiment: Suppression of tumor formation and growth of human tumor cells in nude mice; type: in vivo; conditions: compared to the control group
Protocol: (§2) The dose was 15 mg/kg, three times administration in total. The mice of negative control group (n=8) were administrated with physical saline. The mice of positive control group (n=5) were administrated with cyclophosphamide (CTX, 60 mg/kg). […] Three weeks later, the mice were sacrificed and the growth of tumor was determined by the weight of the tumor mass.

[5] = target: T1, recombinant human DR4 extracellular domain protein (Homo sapiens, UniProt O00220); experiment: ELISA cross-reactivity of AD5-10 with DR4; type: binding
T1 construct: recombinant human DR4 or DR5 extracellular domain protein expressed in E. coli; made in house; host or cells: E. coli
T1 sequence (O00220 24-239 limits assumed): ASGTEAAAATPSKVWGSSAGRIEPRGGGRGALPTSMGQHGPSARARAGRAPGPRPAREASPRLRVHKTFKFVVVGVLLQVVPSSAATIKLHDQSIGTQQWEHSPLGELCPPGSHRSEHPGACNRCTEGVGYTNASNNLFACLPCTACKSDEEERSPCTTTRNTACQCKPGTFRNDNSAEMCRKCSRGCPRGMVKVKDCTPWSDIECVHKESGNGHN
Protocol: ELISA was used for testing the specific combination of AD5-10 with its anitgen. ELISA plates (Costar, USA) were coated with recombinant human DR4 or DR5 extracellular domain protein expressed in E. coli over night, blocked with 5% nonfat milk at room temperature for two hours. […] The absorbency at 492 nm was measured on a microtiter reader of enzyme-labelled machine, Wellscan MK3 (Thermo Labsystems, Finland).

Jurkat cells = experiment: Western blot of caspase activation and PARP cleavage; type: cell-based, human
Protocol: After the collected cells were lysed in cell cleavage solution, SDS-PAGE was used, the proteins separated in the gel were subsequently electrotransferred onto a polyvinylidene difluoride (PVDF) membrane. The membrane was then incubated with the indicated primary antibodies (Santa Cruz, USA) and probed with HRP-conjugated secondary antibodies (Beijing Zhongshan Co.). The proteins were visualized by ECL Plus Western Blotting Detection System (Amersham Biosciences, USA).

[6] = test system: liver cancer cells SMMC-7721; experiment: Tumoricidal activity in vivo, SMMC-7721 cells in nude mice; design: species or system nude mice BALB/c; conditions: SMMC-7721 in nude mice
Protocol: as §2

B1: AD5-10: murine monoclonal antibody against human TRAIL receptor DR5, subtype IgG3κ, VL SEQ ID No. 1, VH SEQ ID No. 2, hybridoma CGMCC 1192 (antibody, V domains shown)
VH: QIQLVQSGPELKKPGETVKISCKASGYTFTDFSMNWVKQAPGKGLKWMGWINTETGEPTYADDFKGRFALSMETSASTAYLQINNLKNEDTATYFCVRIDYWGQGTTLTVSS
VL: DVVMTQTPLSLPVSLGDQASISCRSSQSLVHSNGNTYLHWYLQKPGQSPKLLIYKVSNRFSGVPDRFSGSGSGTDFTLKISRVEAEDLGVYFCFQSTHVPHTFGGGTKLEIKR
modifications: mus musculus
With B1 the “toxicity to normal lymphocytes” value [1] was “without toxicity to human primary normal lymphocytes in vitro”, the “killing of tumor cells” value [2] was “kills leukemia, liver and lung cancer cells with dose-dependent manner” and the “synergy with TRAIL” value [3] was “can synergize the tumoricidal activity with TRAIL”. The inhibition rate [4] was “about 80%”, the “cross-reaction with death receptor DR4” value [5] was “does not cross-react” and the “caspase cascade activation and PARP cleavage” value (Jurkat cells) was “activates caspase cascade and PARP (poly ADP-ribose polymerase) cleavage”. For the same molecule, the tumor formation ([6]; early treatment) was “inhibits the tumor formation”, the tumor growth ([6]; late treatment) was “inhibites the tumor growth” and the “death and abnormalism in appetite, function, skin and hair” value (Toxicity study in mice; 150 mg/kg, 1 and 2 month's observation) was “does not cause observably death”. The “histological analysis of organs” value (Toxicity study in mice; mice, organs such as liver) was “no pathological changes”.
